From patent US20240052029A1 (BIOHENG THERAPEUTICS, published 2024)
Where a chain is given by its changes, count along the chain named.

B1: 6V8 anti-ROR1 humanized scFv, as chimeric antigen receptor on CAR-T cells (scFv)
scFv: ETTLTQSPATLSVSPGEKVIIRCITSTDIDEDMNWYQQKPGQPPKLLISEGNTLRPGVPSRFSGSGSGTDFTLTISSLQPEDVATYYCLQSNNMPLTFGAGTKLELKGGGGSGGGGSGGGGSQVQLQESGPGLVKPSQTLSLTCTVTAYSITSDYAWNWIRQFPGNKLEWMGYISYSGFTRYNPSLKSRISITRDTSKNQFFLKLNFVTTEDTATYYCARGEITYYFDYWGQGTTLTVSSESKYGPPCPPCPIYIWAPLAGTCGVLLLSLVITLYCKRGRKKLLYIFKQPFMRPVQTTQEEDGCSCRFPEEEEGGCELRVKFSRSADAPAYQQGQNQLYNELNLGRREEYDVLDKRRGRDPEMGGKPRRKNPQEGLYNELQKDKMAEAYSEIGMKGERRRGKGHDGLYQGLSTATKDTYDALHMQALPPR
notes: Humanized from murine ROR1-4
B2: 6V9 anti-ROR1 humanized scFv, as chimeric antigen receptor on CAR-T cells (scFv)
scFv: B1 scFv with T147S, M171I, F201Y, F202Y, K204Q, F207S
notes: Humanized from murine ROR1-4
B3: 6V11 anti-ROR1 humanized scFv, as chimeric antigen receptor on CAR-T cells (scFv)
scFv: B1 scFv with K18R, V19A, T147S, M171I, F201Y, F202Y, K204Q, F207S
notes: Humanized from murine ROR1-4
B4: 6V10 anti-ROR1 humanized scFv, as chimeric antigen receptor on CAR-T cells (scFv)
scFv: B1 scFv with K18R, V19A
notes: Humanized from murine ROR1-4
B5: 6V12 anti-ROR1 humanized scFv, as chimeric antigen receptor on CAR-T cells (scFv)
scFv: B1 scFv with G64S
notes: Humanized from murine ROR1-4
B6: 6V13 anti-ROR1 humanized scFv, as chimeric antigen receptor on CAR-T cells (scFv)
scFv: B1 scFv with G64S, T147S, M171I, F201Y, F202Y, K204Q, F207S
notes: Humanized from murine ROR1-4

Molecular target: T1, ROR1-hFc (Acrobio brand, Cat. No. R01-H5250) protein (UniProt Q01973 30-403)
T1 construct: Bought reagent; not shown: hFc (human Fc, detected with anti-human IgG Fc)
Assay: flow cytometry: CAR-T cells stained with ROR1-hFc, then PE anti-human IgG Fc
Description: After culturing at 37° C. and 5% CO₂ for 11 days, the above CAR-T cells, ROR1-4 CAR-T-2 cells (replacing the CD8α hinge region in the ROR1-4 CAR-T cells with the IgG4 hinge region) and Wild-type T cells (NT, used as negative control) were incubated with ROR1-hFc (Acrobio brand, Cat. No. R01-H5250) protein for 45 minutes, and after washing, PE anti-human IgG Fc Antibody (Biolegend brand, Cat. No. 410708) was added to incubate for 30 minutes. The expression level of the anti-ROR1 single chain antibody on the CAR-T cells was detected by flow cytometry, and the results are shown in FIG. 4.

T1 sequence (Q01973 30-403): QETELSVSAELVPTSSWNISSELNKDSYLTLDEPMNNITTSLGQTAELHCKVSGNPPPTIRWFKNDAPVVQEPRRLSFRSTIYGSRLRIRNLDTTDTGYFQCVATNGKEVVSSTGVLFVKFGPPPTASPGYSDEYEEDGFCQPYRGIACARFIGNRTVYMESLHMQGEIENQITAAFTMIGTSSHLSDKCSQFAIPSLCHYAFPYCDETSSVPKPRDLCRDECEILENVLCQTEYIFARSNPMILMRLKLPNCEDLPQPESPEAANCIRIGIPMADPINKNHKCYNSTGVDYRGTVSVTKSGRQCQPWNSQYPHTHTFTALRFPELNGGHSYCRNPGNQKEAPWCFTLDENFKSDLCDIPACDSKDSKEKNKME

Binding result, binds:
B1
B2
B3
B4
B5
B6
